Measurements: patent publication US20220306762A1 (CRYSTAL BIOSCIENCE, published 2022)

B1: 40769p1.1.A2 (scFv, V domains shown)
VH: EVQLLESGGGLVQPGGSLRLSCAASGFLFDDYGMSWVRQAPGKGLEWVSAISYKGGSTYYADSVKGRFTISRDNSKNTLYLQMSSLRAEDTAVYYCAKDHKWNYYGMDVWGQGTTVTVSS
VL: QSVLTQPPSASGTPGQRVTISCSGSTSNIGNDNYVSWYQQLPGTAPRLLIYKDDQRPSGVPDRFSGSKSGTSASLAISGLQSEDEADYYCGTWDDRLNAWVFGGGTKLTVL
B2: 40769p1.1.B8 (scFv, V domains shown)
VH: EVQLLESGGGLVQPGGSLRLSCAASGFTFEDYAMSWVRQAPGKGLEWVSVISSKGGSTSNADSVKGRFTISRDNSKNTLYLQMNSLRAEDTAVYYCAKGMERQYYSYNAMDVWGQGTTVTVSS
VL: QSVLTQPPSASGTPGQRVTISCSGSNSNIDVDYVYWYQQLPGTAPRLLIYKDDQRPSGVPDRFSGSKSGTSASLAISGLQSEDEADYYCATWDDNLNSWLFGGGTKLTVL
B3: 40769p2.2.G3 IgG (antibody, V domains shown)
VH: EVQLLESGGGLVQPGGSLRLSCTASGITFSRFNMFWVRQAPGKGLEFVASIRDDGSWTYYADSVKGQFTISRDNSKNTLYLQMNSLRAEDTAVYYCAKDYSSKDFIYHYVMDVWGQGTTVTVSS
VL: QSVLTQPPSASGTPGQRVTISCSGRNSNIGNNVVNWYQQLPGTAPKLLIYRNQERPSGVPDRFSGSKSGTSASLAISGLQSEDEADYYCASWDDSLNAWVFGRGTKLTVL
notes: IgG
B4: 40769p2.2.D3 IgG (antibody, V domains shown)
VH: EVQLLESGGGLIQPGGSLRLSCTASGFDFSSYGMHWVRQAPGKGLEWVGIISDSGGTTYYADSVKGRFTISRDNSKNTLYLQMNSLRAEDTALYYCASYIMDVWGQGITVTVSS
VL: QSVLTQPPSASGTPGQRVTISCSGSNSNVGVNSVYWYQQLPGTAPKLLIYGSGRRPSGVPDRFSVSKSGTSASLAISGLQSEDEADYYCAAWDGGLNAWVFGGGTKLTVL
notes: IgG
B5: 40769p1.1.E2 (scFv, V domains shown)
VH: EVLLLESGGGLVQPGGSLRLSCAASGFTFSDYWMSWVRQAPGKGLEWVSTISISAGIIYYADSVKGRFTISRDNSKNTLYLQMNSLRAEDTAVYYCAKDNWNDYYGMDVWGQGTTVTVSS
VL: QSVLTQPPSASGTPGQRVTMSCSGNNQNIRDNYVYWYQQVPGTAPKLLIYKDDQRPSGVPDRFSGSKSGTSASLAISGLQSEDEADYYCATWDGSLKARVFGGGTKLTVL
B6: 40769p1.1.G5 (scFv, V domains shown)
VH: EVQLLESGGGFVQPGGSLRLSCAASGFNFNNAWMNWVRQAPGKGLEWVGIINGDGTNTYYADSVKGRFTISRDNSKNTLYLQMSSLRAEDTAIYYCARDNKLNDYYYAMDVWGQGTTVTV
VL: QSVLTQPSSASGTPGQRVTISCSGGSSNIHANYVYWYQQLPGTAPKLLIYRNSQRPSGVPDRFSGSKSGTSASLAISGLQSEDEADYYCGTWDNILNVWVFGGGTKLTVL
B7: 40769p1.1.G10 (scFv, V domains shown)
VH: EVQLLESGGGLVQPGGSLRLSCAASGFTFSDYWMNWVRQAPGKGLEWVSTISSGGSMIYHADSVKGRFTISRDNSKNTLYLQMNSLRPEDTAVYYCAKDNWNDYYGMDVWGQGTTVTVSS
VL: QSVLTQPPSASGTPGQRVNISCSGSSSNIRYNYVYWYQQVPGTAPKLLIYKDDQRPSGVPDRFSGSESGTSASLAISGLQSEDEADYYCATWDGSLNARVFGGGTKLTVL
B8: 40769p1.1.H1 (scFv, V domains shown)
VH: EVQLLESGGGLVQPGGSLRLSCAASGFTFSDYWMNWVRQAPGKGLEWVSTISSGGSMIYHADSVKGRFTISRDNSKNTLYLQMNSLRPEDTAVYYCAKDNWNDYYGMDVWGQGTTVTVSS
VL: QSVLTQPPSASGTPGQRVNISCSGSSSNIRYNYVYWYQQVPGTAPKLLIYKDDQRPSGVPDRFSGSKSGTSASLAISELQSEDEADYYCATWDGSLNARVFGGGTKLTVL
B9: 40769p2.2.H4 IgG (antibody, V domains shown)
VH: EVQLLESGGGLVQPGGSLRLSCAASGFDFSSYWMNWVRQAPGKGLEWVSTISSGGSIIYYADSVKGQFTISRDNSKNTLYLQMNSLRAEDTAVYYCAKDNWNDYYGMDVWGQGTTVTVSS
VL: QSVPTQPPSASGTPGQRVTISCSGSSSNIRDNYVYWYQQVPGTAPKLLIYKDDQRPSGVPDRFSGSKSGTSASLAISGLQSEDEADYYCATWDGSLNARVFGGGTKLTVL
notes: IgG
B10: 40769p1.1.G12 (scFv, V domains shown)
VH: EVQLLESGGGLVQPGGSLRLSCAASGFTFDDYVMSWVRQAPGKGLEWVSEISESDGSNKYYADSVKGRFIISRDNSKNTLYLQMNSLRAEDTAVYYCARLEPEKYYGMDVWGQGTTVTVSS
VL: QSVLTQPPSASGTPGQRVTISCSGSNSNIGNNLVSWYQQLPGTAPKLLIYRHDHRPSGVPDRFSGSKSGTSASLAISGLQSEDEADYYCATWDDSLNGRAFGGGTKLTVL
B11: 40769p1.2.E3 (scFv, V domains shown)
VH: EVQLLESGGDLVQPGGSLRLSCGASGFTFSDHYMSWVRQAPGKGLEWVADISARGSNTWYADSVKGRFTISRDNSENTLYLQMNSLRAEDTAVYYCAKNWNYNYGMDVWGQGTTVTVSS
VL: QSVLTQAPSASGTPGQRVTISCSGSSIQNNYVSWYQQLPGTAPKLLIYRNFERPSGVPDRFSASKSGTSASLAISGLQSEDEADYYCASWDDSLNWVFGGGTKLTVL
B12: 40769p1.2.B4 (scFv, V domains shown)
VH: EVQLLESGGDLVQPGGSLRLSCGASGFTFSDHYMSWVRQAPGKGLEWVADISARGSNTWYADSVKGRFTISRDNSENTLYLQMNSLRAEDTAVYYCAKNWNYNYGMDVWGHGTTVTVSS
VL: QSVLTQAPSASGTPGQRVTISCSGSSIQNNYVSWYQQLPGTAPKLLIYRNFERPSGVPDRFSASKSGTSASLAISGLQSEDEADYYCASWDDSLNWVFGGGTKLTVL
B13: 40769p1.2.F9 (scFv, V domains shown)
VH: EVQLLESGGDLVQPGGSLRLSCGASGFTFSDHYMSWVRQAPGKGLEWVADISARGSNTWYADSVKGRFTISRDNSENTLYLQMNSLRAEDTAVYYCAKNWNYNYGMDVWGQGTTVTVSS
VL: QSVLTQAPSASGTPGQRVTISCSGSSIQNNYVSWYQQLPGTAPKLLIYRNFERPSGVPDRFSASKSGTSASLAISGLQSGDEADYYCASWDDSLNWVFGGGTKLTVL
B14: 40596p2.1.B8 IgG (antibody, V domains shown)
VH: EVQLLESGGGLGQPGGSLRLSCAASGFDFSSYAMSWVRQAPGKGLEWVAGGGWSGSFIYYADSVKGRFTISRDNSKNTLYLQMNSLRAEDTAVYYCTRNPGFGEMDVWGQGTTVTVSS
VL: EIVLTQSPGTLSLSPGERATLSCRASQTVGSNLAWYQQKPGQAPRLLIHGANNRATDIPDRFSGSGSGTEFTLTVSSLQSEDFAIYYCQQYNSWPPLTFGGGTKVEIK
notes: IgG
B15: 40769p2.1.C1 IgG (antibody, V domains shown)
VH: EVQLLESGGGLVQPGGSLRLSCAASGFSFSDYWMNWVRQAPGKGLEWVSTISSGGNMIYYADSVKGRFTISRDNSKNTLYLRMNSLRAEDTAVYYCAKDNWNDYYGMDVWGQGTTVTVSS
VL: QSVLTQPPSASGTPGQRVTISCSGSSSNIRDNYVYWYQQVPGTAPKLLIYKDDQRPSGVPDRFSGSKSGSSASLAISGLQSEDEADYYCATWDGSLNARVFGGGTKLTVL
notes: IgG
B16: 40769p2.1.E5 IgG (antibody, V domains shown)
VH: EVQLLESGGGLVQPGGSLRLSCTASAHIFKYNWMSWVRQAPGKGLEWVSSINSDGTITYYTDSVKGRFTISRDNSKNTLYLQMNSLRAEDTAVYYCAKDNWNDYAIDVWGQGTTVTVSS
VL: QSVLTQPPSASGTPGQRVTISCSGSRSDIRNNYVSWYQQLPGTAPKLLIYSNGQRPSGVPDRFSGSKSGTSASLAISGLQSEDEADYYCAIWDDSLNAWVFGGGTKLTVL
notes: IgG
B17: 40769p2.1.E8 IgG (antibody, V domains shown)
VH: EVQLLESGGGLVQPGGSLRLSCTGFGFTFTDARMSWVRQAPGKGLEWVADISSYGDNTYYADSVKGRFTISRDNSANTLYVQMNSLRAEDTAVYYCAKRMEREVMTIKLDYHAMDVWGQGTTVTVSS
VL: QSVLTQTPSVSGTPGQRVTISCSGVFNIRNYVSWYQQLPGTAPKLLIFKDDQRPSGVPDRFSGSRSGTSASLAISGLQSEDEADYYCAAWDIFLNVWVFGGGTKLTVL
notes: IgG
B18: 40769p2.2.C11 IgG (antibody, V domains shown)
VH: EVQLLESGGGLVQPGGSLRLSCAASGFTFSDYEMNWVRQAPGKGLEWVSSISITGSWTYYADSVKGRFTISRDNSKNTLYLQMNNLRAEDTAVYYCANYKSYYGMDVWGHGTTVTVSS
VL: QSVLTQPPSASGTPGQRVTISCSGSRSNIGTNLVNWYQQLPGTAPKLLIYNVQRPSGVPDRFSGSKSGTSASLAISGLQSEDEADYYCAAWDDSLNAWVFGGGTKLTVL
notes: IgG
B19: 40769p2.2.A6 IgG (antibody, V domains shown)
VH: EVQLLESGGGLVQPGGSLRLSCAASGFTFSDYEMNWVRQAPGKGLEWVSAISITGSWTYYADSVKGRFTISRDNSENTLYLQMNNLRAEDTAVYYCANYKSYYGMDVWGRGTTVTVSS
VL: QSVLTQPPSASGTPGQRVTISCSGSRSNIRNNLVNWYQQLPGTAPKLLIYNTQRPSGVPDRFSGSKSGTSASLAISGLQSEDEADYYCASWDASLNAWVFGGGTKLTVL
notes: IgG
B20: 40769p2.2.A9 IgG (antibody, V domains shown)
VH: EVQLLESGGGLVQPGGSLRLSCTASGITFSRFNMFWVRQAPGKGLEFVASIRDDGSWTYYADSVKGQFTISRDNSKNTLYLQMNSLRAEDTAVYYCAKDYNSKDFIYHYVMDVWGQGTTVTVSS
VL: QSVLTQPPSASGTPGQRVTISCSGRNSNIGNNVVNWYQQLPGTAPKLLIYRNQERPSGVPDRFSGSKSGTSASLAISGLQSEDEADYYCSTWDDSLNGWVFGGGTKLTVL
notes: IgG

Columns and labels:
[1] = biological target: T1, His-tagged human CD38 (ACRO Biosystems CD8-H5224) (human, UniProt P28907 43-300); experiment: SPR (second run), His-tagged CD38
T1 construct: bought protein; used for ELISA coating and as SPR analyte; not shown: His tag

[2] = biological target: T2, His-tagged cynomolgus monkey CD38 (ACRO Biosystems, CD8-05223 [sic]) (cynomolgus monkey, UniProt Q5VAN0 43-301); experiment: SPR (second run), His-tagged CD38
T2 construct: bought protein; used for ELISA coating and as SPR analyte; not shown: His tag

[3] = biological target: T1, His-tagged human CD38 (ACRO Biosystems …); experiment: SPR, IgG
[4] = biological target: T2, His-tagged cynomolgus monkey CD38 (ACRO …); experiment: SPR, IgG

Binder	Kd [1]	Kd [2]	Kd [3]	Kd [4]
B1	0.82 nM	0.72 nM	–	–
B2	0.25 nM	3.29 nM	–	–
B3	–	–	50.4 nM	205 nM
B4	–	–	41.3 nM	348 nM
B5	6.99 nM	8.31 nM	–	–
B6	7.56 nM	28.1 nM	–	–
B7	1.71 nM	72.1 nM	–	–
B8	58.5 nM	59.9 nM	–	–
B9	–	–	57 nM	167 nM
B10	2.81 nM	15.3 nM	–	–
B11	6.74 nM	4.9 nM	–	–
B12	8.02 nM	7.84 nM	–	–
B13	8.85 nM	8.27 nM	–	–
B14	–	–	18.5 nM	159 nM
B15	–	–	60.7 nM	29.3 nM
B16	–	–	1.18 nM	467 nM
B17	–	–	0.14 nM	0.35 nM
B18	–	–	0.67 nM	2.18 nM
B19	–	–	21.9 nM	22.9 nM
B20	–	–	11.3 nM	259 nM
